Reference: US20080171037A1, “Apo-3 ligand polypeptide” (Genentech, Inc., priority 1997, published 2008)
Entries after “also recorded” stand apart in the source; their conditions may differ.

T1: Apo-3 (Homo sapiens, UniProt Q93038)
T1 construct: made in house
T1 sequence (Q93038 25-199 limits assumed): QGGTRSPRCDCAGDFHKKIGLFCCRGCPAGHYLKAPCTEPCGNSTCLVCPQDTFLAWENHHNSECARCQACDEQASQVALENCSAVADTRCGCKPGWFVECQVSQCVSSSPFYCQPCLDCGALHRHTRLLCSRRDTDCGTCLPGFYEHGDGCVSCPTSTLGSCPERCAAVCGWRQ

B1: soluble Apo-3 Ligand (protein)
chain: MGHHHHHHHHHHSSGHIDDDDKHMRASLSAQEPAQEELVAEEDQDPSELNPQTEESQDPAPFLNRLVRPRRSAPKGRKTRARRAIAAHYEVHPRPGQDGAQAGVDGTVSGWEEARINSSSPLRYNRQIGEFIVTRAGLYYLYCQVHFDEGKAVYLKLDLLVDGVLALRCLEEFSATAASSLGPQLRLCQVSGLLALRPGSSLRIRTLPWAHLKAAPFLTYFGLFQVH
B2: Apo-3 Ligand: Novel human TNF family polypeptide of 249 amino acids encoded by clone DNA30879-1152 (ATCC 209358) (protein)
chain: B1 chain
B3: p35: virus-derived caspase inhibitor, expressed from a transfected plasmid (protein, UniProt P08160 1-299, looked up)
Early 35 kDa protein: MCVIFPVEIDVSQTIIRDCQVDKQTRELVYINKIMNTQLTKPVLMMFNISGPIRSVTRKNNNLRDRIKSKVDEQFDQLERDYSDQMDGFHDSIKYFKDEHYSVSCQNGSVLKSKFAKILKSHDYTDKKSIEAYEKYCLPKLVDERNDYYVAVCVLKPGFENGSNQVLSFEYNPIGNKVIVPFAHEINDTGLYEYDVVAYVDSVQFDGEQFEEFVQSLILPSSFKNSEKVLYYNEASKNKSMIYKALEFTTESSWGKSEKYNWKIFCNGFIYDKKSKVLYVKLHNVTSALNKNVILNTIK

Legend:
[1] = system: MCF-7 breast carcinoma cells; assay: Apoptosis in MCF-7 breast carcinoma cells (microscopy, Hoechst dye); type: cell-based, human; settings: MCF-7 cells pre-treated with CHX 10 μg/ml, ligand 2 μg/ml, 14 hours, FIG. 9A
Description: Human MCF-7 breast carcinoma cells (ATCC HTB 22) were pre-treated for 1 hour with cyclohexamide (CHX) (10 μg/ml) and incubated for 14 hours with soluble Apo-3 Ligand (2 μg/ml; prepared as described in Example 3 above) alone or together with zVAD-fmk (Research Biochemicals) (100 nM). The cells were then stained with Hoechst dye and photographed by phase (FIG. 9A, left) and by fluorescence (FIG. 9A, right) microscopy. In FIG. 9A, arrowheads indicate some of the apoptotic cells (left) and their condensed nuclei (right).
In a separate experiment, the MCF-7 cells were pre-treated for 1 hour with buffer or CHX, incubated for an additional 14 hours with the indicated concentrations of soluble Apo-3 Ligand (see FIG. 9B), and apoptotic or live cells were score by microscopy.

NF-κB [2] = assay: NF-κB activation, electrophoretic mobility shift assay, HeLa cells; type: cell-based, human; settings: FIG. 5A
Description: In a first assay, HeLa cells (ATCC CCL 22) were treated with His-tagged soluble Apo-3 Ligand (described in Example 3) (10 μg/ml) in duplicate or with vehicle for 30 minutes. His-tagged Apo-2 ligand (see WO 97/25428) or TNF-alpha (Pennica et al., Nature, 312:724-729 (1984)) were assayed for comparison. Nuclear extracts were prepared and 1 μg of nuclear protein was reacted with a ^32P-labelled NF-κB-specific synthetic oligonucleotide probe

[3] = system: HeLa S3 cervical carcinoma cells; assay: Apoptosis in HeLa S3 cells (DNA fragmentation analysis); type: cell-based, human; settings: HeLa S3 cells pre-treated with CHX, FIG. 9C
Description: HeLa S3 cervical carcinoma cells (ATCC CCL 2.2) were similarly pre-treated with CHX and then incubated with soluble Apo-3 Ligand (prepared as described in Example 3 above) alone or together with zVAD-fmk or DEVD-fmk (Research Biochemicals) (100 nM). The treated cells were then subjected to DNA fragmentation analysis.

DR5 = molecular target: T2, DR5 (Homo sapiens, UniProt O14763); assay: Co-immunoprecipitation binding assay with DR5 ECD; settings: ligand and receptor 1 μg/ml, FIG. 8A
T2 construct: the ECD of the Apo-2L receptor, DR5; made in house
Description: (§1) A Flag-epitope tagged soluble Apo-3 was produced (as described for DR5 in Sheridan et al., Science, 277:818 (1997)) and tested in a co-immunoprecipitation assay to examine its ability to associate with a histidine tagged soluble Apo-3 Ligand (see Example 3 above). […] The respective ligands (1 μg/ml) and receptors (1 μg/ml) were incubated for 1 hour at room temperature. The reaction mixtures were subjected to precipitation with anti-Flag antibody conjugated to sepharose beads (Kodak) (FIG. 8A, left) or nickel-sepharose (Qiagen) (FIG. 8A, right) by overnight incubation at 4° C. according to manufacturer's instructions and resolved by gel electrophoresis. The ligands were visualized by Western blot analysis with nickel-conjugated horseradish peroxidase. In FIG. 8A, molecular weight markers (kDa) are indicated on the left.

Apo-3 = molecular target: T1, Apo-3; assay: Co-immunoprecipitation binding assay with Flag-tagged soluble Apo-3; settings: ligand and receptor 1 μg/ml, FIG. 8A
Description: A binding assay was conducted to determine if Apo-3 Ligand binds Apo-3 receptor. Apo-3 receptor was described by Marsters et al., Curr. Biol., 6:750 (1996). Other investigators have also referred to Apo-3 as DR3 [Chinnayian et al., Science, 274:990 (1996)], Wsl-1 [Kitson et al., Nature, 384:372 (1996)], TRAMP [Bodmer et al., Immunity, 6:79 (1997)], or LARD [Screaton et al., PNAS, 94:4615-4619 (1997)].
as §1

NF-κB [4] = assay: NF-κB activation, electrophoretic mobility shift assay, 293 cells; type: cell-based, human; settings: 3 hours, FIG. 5B and 5C
[5] = system: Jun N-terminal kinase (JNK/SAPK); assay: JNK/SAPK activity in 293 cells transfected with full length Apo-3 Ligand; type: cell-based, human; settings: 293 cells transfected, FIG. 7
Description: The pRK5 plasmid encoding Apo-3 Ligand polypeptide or empty pRK5 plasmid (see Example 6 above) was transiently transfected into human 293 cells (ATCC CCL 1573) by calcium phosphate precipitation. Four hours later, one set of cells was treated with z-VAD-fmk (Research Biochemicals) (200 μM). Twenty hours later, the cells were harvested and analyzed for activity of Jun N-terminal kinase (JNK; also called stress activated protein kinase or SAPK) using a commercially available JNK/SAPK assay kit (New England Biolabs), and according to the manufacturer's instructions.

HeLa cells = assay: Apoptosis in HeLa cells transfected with full length Apo-3 Ligand (FACS, annexin V binding); type: cell-based, human; settings: HeLa cells transfected with plasmid encoding amino acids 1 to 249, CD4-positive cells, FIG. 6
Description: A pRK5 plasmid (see EP 307,247) encoding Apo-3 Ligand polypeptide (amino acids 1 to 249 of FIG. 1), or empty pRK5 plasmid, was transiently transfected along with a pRK5 plasmid encoding human CD4 as a marker for transfection into human HeLa cells by electroporation, and the cells were plated in tissue culture dishes. Four hours later, the caspase inhibitor z-VAD-fmk (Research Biochemicals) (200 μM) was added to some of the dishes. Twenty hours later, apoptosis was determined by FACS analysis of cells positive for the CD4 marker by measuring binding of fluorescein isothiocyanate (FITC)-conjugated annexin V (Brand Applications) (see WO 97/25428).

MCF-7 cells = assay: Apoptosis by soluble Apo-3 Ligand in MCF-7 cells transfected with caspase inhibitors or FADD mutant; type: cell-based, human; settings: CHX 1 hour, soluble Apo-3 Ligand 2 μg/ml 14 hours, FIG. 9D
Description: MCF-7 cells were transfected by lipofection with empty vector (pRK5; EP 307,247) or with expression plasmid encoding the caspase inhibitors, p35 or CrmA, or a dominant-negative FADD mutant (Tularik, South San Francisco, Calif.). Sixteen hours later, the cells were pre-treated with CHX for 1 hour, and then treated for an additional 14 hours with soluble Apo-3 Ligand (2 μg/ml).

T2 sequence (O14763 56-184 limits assumed): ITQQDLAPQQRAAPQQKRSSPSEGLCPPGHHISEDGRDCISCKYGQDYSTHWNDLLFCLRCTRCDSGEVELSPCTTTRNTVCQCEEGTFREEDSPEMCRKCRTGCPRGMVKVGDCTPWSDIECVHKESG

Molecule	apoptosis (morphological changes and chromatin condensation) [1]	NF-κB activation (NF-κB [2]; 10 μg/ml, 30 minutes)	level of NF-κB activation compared with Apo-2 ligand (NF-κB [2])	level of NF-κB activation compared with TNF-alpha (NF-κB [2])	apoptosis (internucleosomal DNA fragmentation) [3]	binding to DR5 (DR5)	binding to Apo-3 (Apo-3)	binding to Apo-3 (Apo-3; listed as Apo-3L)	NF-κB activation (NF-κB [4])	level of JNK/SAPK activity compared with pRK5 control [5]	level of apoptosis compared with pRK5 (control) (HeLa cells)	effect of transfection on induction of apoptosis by Apo-3 Ligand (MCF-7 cells)
B1	induced marked apoptosis	induced significant NF-κB activation	comparable	weaker	induced marked apoptosis							
B2	induced apoptosis					not to DR5	bound to Apo-3	specifically binds to Apo-3	NF-κB activation	detectable increase; also recorded: increased JNK/SAPK activity	about a doubling of the level of apoptosis	
B3												blocked induction of apoptosis
